Experimental data taken from patent US20170267762A1 (APOLLOMICS, published 2017).
Changes are numbered by the printed parent chain.

T1: mouse PD-1 (mouse, UniProt Q02242 25-169, limits assumed)
T1 sequence (looked up): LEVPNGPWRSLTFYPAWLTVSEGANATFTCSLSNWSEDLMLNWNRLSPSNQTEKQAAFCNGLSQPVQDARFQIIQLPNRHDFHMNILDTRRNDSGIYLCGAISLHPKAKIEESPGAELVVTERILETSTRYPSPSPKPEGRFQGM

T2: human CTLA4 (human, UniProt P16410 36-161, limits assumed)
T2 sequence (looked up): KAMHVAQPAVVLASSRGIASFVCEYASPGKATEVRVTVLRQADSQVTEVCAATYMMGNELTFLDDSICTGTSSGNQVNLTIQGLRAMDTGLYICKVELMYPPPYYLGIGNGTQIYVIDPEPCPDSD

T3: human ICOS (human, UniProt Q9Y6W8 21-140, limits assumed)
T3 sequence (looked up): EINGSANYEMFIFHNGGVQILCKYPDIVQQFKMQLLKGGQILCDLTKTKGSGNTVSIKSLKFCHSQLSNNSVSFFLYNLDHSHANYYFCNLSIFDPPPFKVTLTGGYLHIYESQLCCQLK

B1: 15H5 murine anti-PD-1 antibody (antibody, V domains shown)
VH: EVKLVESGGGLVKPGGSLKLSCAASGFAFRSYDMSWVRQTPEKILEWVATISGGGSYTYYQDSVKGRFTISRDNARNTLYLQMSSLRSEDTALYYCASPYGPYFDYWGQGTTLTVSS
VL: DIQMNQSPSSLSASLGDTITITCHASQSINVWLSWYQQKPGNIPKLLIYRASNLHTGVPSRFSGSGSGTGFTLTISSLQPDDIATYYCQQGQSYPWTFGGGTKLEIKR
notes: Purified hybridoma antibody; also called 15H5-mIgG1
B2: 7A4 murine anti-PD-1 antibody (antibody, V domains shown)
VH: QIHLVQSGPELKKPGETVKISCKASGYTFTNFGMNWVKQAPGKGLKWMGWISGYTREPTYAADFKGRFAISLETSASTAYLQINDLKNEDMATYFCARDVFDYWGQGTTLTVSS
VL: DIVLTQSPASLAVSLGQRATISCRASESVDNYGYSFMNWFQQKPGQPPKLLIYRASNLESGIPARFSGSGSRTNFTLTINPVEADDVATYFCQQSNADPTFGGGTNLEIKR
notes: Purified hybridoma antibody; also called 7A4-mIgG1
B3: 22A5 murine anti-PD-1 antibody (antibody, V domains shown)
VH: EVKLVESGGGLVKPGGSLKLSCSASGFSFSYYDMSWVRQTPEKGLEWVATISGGGRNTYFIDSVKGRFTISRDNVKNNLYLLMSSLRSEDTALYYCASPYEGAVDFWGQGTSVTVSS
VL: DIVMTQSHKVMSTSVGDRVSITCKASQDVDNAVAWYQQNPGQSPKLLIKWASTRHHGVPDRFTGSGSGTDFTLTISTVQSEDLADFFCQQYSTFPYTFGGGTKLEIKR
notes: Purified hybridoma antibody; also called 22A5-mIgG1
B4: 13F1 murine anti-PD-1 antibody (antibody, V domains shown)
VH: DVQLQESGPGLVKPSQSLSLTCTVTGYSITSDYAWNWIRQFPGNQLEWMAYISYSGYTSYNPSLKSRISITRDTSKNQFFLQLNSVTTEDTATYYCARSLDYDYGTMDYWGQGTSVTVSS
VL: QIVLSQSPAILSASPGEKVTMTCRANSSVSSMHWYQQKPGSSPEPWIYAISNLAFGVPTRFSGSGSGTSYSLTISRVEAEDAATYFCQQWSSRPPTFGGGTKLEIKR
notes: Purified hybridoma antibody; also called 13F1-mIgG1
B5: 6E1 murine anti-PD-1 antibody (antibody, V domains shown)
VH: EVKLVESGGGLVKPGGSLKLSCAASGFTFSSYGMSWVRQTPEKRLEWVATISGGGRDTYYLDSVKGRFTISRDNAKNNLYLQMSSLRSEDTALYYCVRQYYDDWFAYWGQGTLVSNSA
VL: DIVLTQTPATLSVTPGDSVSLSCRASQSLSNNLHWYQQKSHESPRLLIKYASQSISGIPSRFSGSGSGTDFTLSINSVETEDFGMYFCQQSNSWPLTFGAGTKLEMKR
notes: Purified hybridoma antibody; also called 6E1-mIgG1
B6: 7D3 murine anti-PD-1 antibody (antibody, V domains shown)
VH: B5 VH with A23G, T58I, L61P, F68L, S115T, N116V
VL: B5 VL with T7S, L29I, N32D, A51V, N92D, M106L
notes: Purified hybridoma antibody; also called 7D3-mIgG1

Each binder was assayed against T4, human PD-1 extracellular domain fused with mouse Fc (PD-1-mFc) (human, UniProt Q15116 25-170) (assay: blockage ELISA, coated PD-1-mFc, competitor PDL-1-mFc-biotin).
T4 construct: extracellular domain; not used because of the label; also called hPD-1-mFc; human PD-1-mouse Fc fusion protein
Procedure: (§1) PD-1-mFc antigen (CrownBio) was suspended in PBS (Hyclone,Cat No:SH30256.01B) buffer (2 ug/ml, 100 ul/ well) and coated on the 96 well plate (costar, Cat No.:9018) 4° C. overnight. Plates were washed 3 times using washing buffer: PBS+0.05% Tween 20(Sigma, Cat No.:P1379). 200 ul of blocking buffer (PBS+1%BSA(Roche, Cat No.:738328)), was added to each well, incubated at 37° C. for 1 hour, and washed 3 times. Various concentrations (suitable dilutions of hybridoma supernatant in PBS) of the anti-PD-1 Abs were added to the wells (100 μl/well) and incubated at 37° C. for 1 hour. […] Secondary antibody (Avidin HRP eBioscience cat No.:E07418-1632, 1:500, 100 ul/well) was added, incubated at 37 ° C. for 0.5 hour, and washed 3 times. TMB (Sigma, Cat No.: T0440, 100 ul/well) was added, and incubated for 3 min at RT. To stop the reaction, 2N H2SO4 (100 ul/well), was added. The colorimetric signals were developed and read at 450 nm using a Auto Plate SpectraMax Plus (Supplier: Molecular Devices; Model: MNR0643; Software: SoftMax Pro v5.4).
(§2) The purified hybridoma antibodies were characterized further based on ELISA and FACS analyses.

T4 sequence (Q15116 25-170): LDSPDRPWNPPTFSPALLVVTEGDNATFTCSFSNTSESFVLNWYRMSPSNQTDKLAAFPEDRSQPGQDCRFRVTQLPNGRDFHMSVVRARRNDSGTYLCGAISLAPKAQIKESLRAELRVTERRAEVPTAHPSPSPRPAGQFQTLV

| Binder | IC50 [µg/mL] |
| --- | --- |
| B1 | 0.873 |
| B2 | 0.699 |
| B3 | 1.11 |
| B4 | 0.701 |
| B5 | 0.961 |
| B6 | 0.982 |

What follows are binders tested against T5, human PD-1 extracellular domain fused with human Fc tag (hPD-1-hFc) (human) (assay: ELISA binding (summary table)).
T5 construct: also called human PD-1-hFc
Procedure: (§3) ELISA binding analysis was conducted based on human PD-1-hFc Protein. 96-well plates (Costar, Cat No:9018) were coated with 100 μL of 2 μg/ml PD1-hFc (CrownBio) in coating buffer (PBS, Hyclone, Cat No:SH30256.01B) overnight at 4° C. The wells were aspirated and non-specific binding sites were blocked by adding 200 μL of blocking buffer with 1% (w/v) of bovine serum albumin (BSA, Roche, Cat No: 738328) and incubating for 1 hour at 37° C. After the plates are washed three times with wash buffer (PBS with 0.05%(v/v) Tween20 (Sigma, Cat No:P1379), 100 μL/well of a suitable dilutions of hybridoma supernatant in blocking buffer were added and incubated at room temperature for 1 hour. The plates were washed and incubated with 100 μL/well of Goat anti-Mouse IgG (H+L) (Thermo, Cat No: 31432) in blocking buffer for 60 min. After the plates were washed, 100 μL/well of substrate solution (TMB(eBioscience, Cat No:00-4201-56) was added and the plates were incubated for 2min at room temperature. 100 μL/well of stop solution (2N H2SO4) was added to stop the reaction. The colorimetric signals were developed and read at 450 nm using a Auto Plate SpectraMax Plus (Supplier: Molecular Devices; Model: MNR0643; Software: SoftMax Pro v5.4).
as §2

T5 sequence (chain, as listed by the source limits assumed): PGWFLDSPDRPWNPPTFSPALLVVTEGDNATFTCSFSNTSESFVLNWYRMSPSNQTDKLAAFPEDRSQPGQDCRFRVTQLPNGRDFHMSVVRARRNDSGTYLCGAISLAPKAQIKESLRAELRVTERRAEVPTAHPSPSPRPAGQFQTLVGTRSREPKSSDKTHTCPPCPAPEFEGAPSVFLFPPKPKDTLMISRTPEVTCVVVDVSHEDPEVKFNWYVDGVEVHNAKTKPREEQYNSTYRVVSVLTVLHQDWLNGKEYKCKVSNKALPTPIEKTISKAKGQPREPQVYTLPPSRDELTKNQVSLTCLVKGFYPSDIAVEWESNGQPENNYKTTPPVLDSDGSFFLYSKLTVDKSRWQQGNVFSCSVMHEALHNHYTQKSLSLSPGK

| Binder | EC50 [µg/mL] |
| --- | --- |
| B1 | 0.0134 |
| B2 | 0.00932 |
| B3 | 0.0194 |
| B4 | 0.0173 |
| B5 | 0.0157 |
| B6 | 0.0244 |

Each binder was assayed against T6, human PD-1 on cells (293T cells transfected with human PD-1) (human, UniProt Q15116 25-288) (assay: FACS on hPD-1-293T cells).
T6 construct: whole, on cells; Also used as the target for the functional rows, where PD-1 stands on human T cells
Procedure: The cells were incubated with the indicated antibody (20 ug/ml with the dilution of ⅕) at 4° C. for 1 h. Cells were washed three times with FACS buffer. A secondary antibody (PE Goat anti-mouse: 1:200; PE mouse anti-human: 1:10) was added to the cells at 100 ul/well, and incubated at 4° C. for 40min. Cells were washed three times with FACS buffer and analyzed by FACS Array.
as §2

T6 sequence (Q15116 25-288): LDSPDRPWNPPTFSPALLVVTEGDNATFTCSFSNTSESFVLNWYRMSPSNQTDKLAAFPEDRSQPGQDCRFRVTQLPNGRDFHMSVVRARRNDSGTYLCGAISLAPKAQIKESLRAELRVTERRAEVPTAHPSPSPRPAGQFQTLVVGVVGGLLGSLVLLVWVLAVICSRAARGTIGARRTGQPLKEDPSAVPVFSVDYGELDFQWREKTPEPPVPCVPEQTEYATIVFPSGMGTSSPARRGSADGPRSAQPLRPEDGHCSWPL

| Binder | EC50 [µg/mL] |
| --- | --- |
| B1 | 0.0454 |
| B2 | 0.0389 |
| B3 | 0.0775 |
| B4 | 0.0308 |
| B5 | 0.0491 |
| B6 | 0.0527 |

These binders were tested against T6, human PD-1 on cells (293T cells …) (assay: FACS blockage on hPD-1-293T cells, competitor biotin PD-L2).
Procedure: (§4) Various concentrations of the testing hybridoma antibodies were added to the cell suspension and incubated at 4° C. for 60 minutes in 96 well plates. […] Plates were washed 3 times, and mouse anti-biotin PE antibody (Biolgend, cat# 409004) was added. Flow cytometric analyses were performed using a FACS Array.
as §2

| Binder | IC50 [µg/mL] |
| --- | --- |
| B1 | 0.063 |
| B2 | 0.00445 |
| B3 | 0.21 |
| B4 | 0.0529 |
| B5 | 0.114 |
| B6 | 0.141 |

What follows are binders tested against T7, human PD-1 (construct not stated) (human, UniProt Q15116 25-167, limits assumed) (assay: Biacore (summary table; unit from Table 7)).
T7 construct: also called PD-1 analyte
Procedure: (§5) To further characterize the binding characteristics of the antibodies, 10 hybridoma antibodies were profiled using Biacore (Biacore 3000, GE) to elucidate binding kinetics and calculate equilibrium binding constants. This assay was performed by capture method, using the mouse antibody capture kit (BR-1008-38, GE). After diluting anti-mouse Fc mab to 25 μg/ml in pH 5.0 immobilization buffer, immobilization was conducted with the parameters shown in Table 6 at a flow rate of 5 μl/min. The kinetic runs were done by 1) injecting ligand for typical 0.5-1 min at flow rate of 10 μl/min.; 2) injecting analytes of choice for typical 3 min followed by dissociation in running buffer (1× PBS-P20) for typical 5-10 min at flow rate of 30 μl/min.; and 3) injecting regeneration solution 10 mM Glycine pH1.7 for typical 1-2 min at flow rate of 10 μl/min.

T7 sequence (Q15116 25-167 limits assumed): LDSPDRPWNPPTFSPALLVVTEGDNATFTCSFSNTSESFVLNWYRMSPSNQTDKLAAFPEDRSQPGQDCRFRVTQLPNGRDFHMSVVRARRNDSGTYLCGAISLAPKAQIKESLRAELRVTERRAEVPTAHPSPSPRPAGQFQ

| Binder | Kd [nM] |
| --- | --- |
| B1 | 0.0184 |
| B3 | 0.0193 |
| B4 | 0.0278 |
| B5 | 0.0255 |
| B6 | 0.0249 |

Each binder was assayed against T1, mouse PD-1 (assay: assays not detailed).

| Binder | binding result |
| --- | --- |
| B1 | no binding |
| B2 | no binding |
| B3 | no binding |
| B4 | no binding |
| B5 | no binding |
| B6 | no binding |

These binders were tested against T5, human PD-1 extracellular domain fused … (assay: ELISA on coated PD1-hFc).
Procedure: as §3, §2

| Binder | EC50 [µg/mL] |
| --- | --- |
| B1 | 0.0134 |
| B2 | 0.00932 |
| B3 | 0.0194 |
| B4 | 0.0173 |
| B5 | 0.0157 |
| B6 | 0.0244 |

The binders below were run against T6, human PD-1 on cells (293T cells …) (assay: FACS blockage on hPD-1-293T cells, competitor biotin PD-L1).
Procedure: as §4, §2

| Binder | IC50 [µg/mL] |
| --- | --- |
| B1 | 0.0356 |
| B2 | 0.0289 |
| B3 | 0.0562 |
| B4 | 0.0199 |
| B5 | 0.0268 |
| B6 | 0.038 |

What follows are binders tested against T4, human PD-1 extracellular domain fused … (assay: blockage ELISA, competitor PDL-1-mFc-biotin (summary table; IC50 in ng/ml in Table 2)).
Procedure: as §1

| Binder | IC50 [µg/mL] |
| --- | --- |
| B1 | 0.873 |
| B2 | 0.699 |
| B3 | 1.11 |
| B4 | 0.701 |
| B5 | 0.961 |
| B6 | 0.982 |

What follows are binders tested against human CD28 (human, UniProt P10747 19-152, limits assumed) (assay: Interaction with CTLA4, ICOS CD28; assay not detailed).
human CD28, sequence (P10747 19-152 limits assumed): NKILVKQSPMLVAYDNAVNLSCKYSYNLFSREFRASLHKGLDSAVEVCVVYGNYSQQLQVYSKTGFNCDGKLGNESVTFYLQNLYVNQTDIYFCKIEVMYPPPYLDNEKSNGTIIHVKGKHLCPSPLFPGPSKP

| Binder | binding result |
| --- | --- |
| B1 | no binding |
| B2 | no binding |
| B3 | no binding |
| B4 | no binding |
| B5 | no binding |
| B6 | no binding |

Each binder was assayed against T2, human CTLA4 in the same assay as above.

| Binder | binding result |
| --- | --- |
| B1 | no binding |
| B2 | no binding |
| B3 | no binding |
| B4 | no binding |
| B5 | no binding |
| B6 | no binding |

These binders were tested against T3, human ICOS in the same assay as above.

| Binder | binding result |
| --- | --- |
| B1 | no binding |
| B2 | no binding |
| B3 | no binding |
| B4 | no binding |
| B5 | no binding |
| B6 | no binding |

The binders below were run against T7, human PD-1 (construct not stated) (assay: Biacore, antibody captured, PD-1 analyte).
Procedure: as §5

| Binder | Ka [M⁻¹] | Kd [nM] | koff [s⁻¹] | kon [M⁻¹ s⁻¹] |
| --- | --- | --- | --- | --- |
| B1 | 5.44e+10 | 0.0184 | 3.67e-05 | 2e+06 |
| B2 | 4.06e+10 | 0.0246 | 4.82e-05 | 1.96e+06 |
| B3 | 5.17e+10 | 0.0193 | 2.88e-05 | 1.49e+06 |
| B4 | 3.6e+10 | 0.0278 | 3.92e-05 | 1.41e+06 |
| B5 | 3.92e+10 | 0.0255 | 2.83e-05 | 1.11e+06 |
| B6 | 4.02e+10 | 0.0249 | 2.83e-05 | 1.14e+06 |
